Source: the RNAGym collection of RNA variant scans (doi:10.1073/pnas.2313332121)

B1: TPR t1 (parent)
chain: GACCAAUCUGCCCUCAGAGCUCGAGAACAUCUUCGGAUGCAGAGGAGGCAGGCUUCGGUGGCGCGAUAGCGCCAACGUCCUCAACCUCCAAUGCAUCCCACCACAUGAUGAUGCCUGAAGAGCCUUGGUUUUUUG

Variants of: B1
Test: polymerase ribozyme fitness, log enrichment relative to wild type (log ratio); higher = more active; in vitro selection for triplet polymerase activity
Outline: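 Mutant libraries of each subunit of a heterodimeric triplet polymerase ribozyme were built by PCR and transcribed. Each library went through one round of in vitro selection in triplicate: annealing with biotinylated primer, partner subunit and triplets, frozen incubation at −7 °C, gel excision of extended constructs, streptavidin-bead capture and RT-PCR. Input and output libraries were Illumina-sequenced; only genotypes with ≥10 input reads and ≥1 read per output were kept. Fitness is log2(genotype enrichment/wild-type enrichment), using inverse-variance-weighted replicate averages.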

Variant	polymerase ribozyme fitness (log ratio)
GACCAAUCUGCCCUCAGAGCUCGAGAACAUCUUCGGCUGCAGAGGAGGCAGGCUUCGGUGGCGCGAUGGCGCCAACGUCCUCAACCUCCAAUGCAUCCCACCACAUGAUGAUGCCUGAAGAGCCUUGGUUUUUUG [A37C A68G]	-2.51
GACCAAUCUGCCCUCAGAGCUCGAGAACAUCUUCGGAUGCAGAGGAGGCAGGCUUCGGAGGCGCGAUAGCGCCAACGUCCUCAACCUCCAAUUCAUCCCACCACAUGAUGAUGCCUGAAGAGCCUUGGUUUUUUG [U59A G93U]	-0.878
GACCAAUCUGCCCUCAGAGCUCGAGAACAUCUUCGGAUGCAGAGGAGACAGGCUUCGGUGGCGCGAUAGCGCCAACGUCCUCAACCUCCAAUGCAUCCCACCACAUGAUGAUACCUGAAGAGCCUUGGUUUUUUG [G48A G113A]	-1.61
GACCAAUCUGCCCUCAGAGCUCGAGAACAUCUUCGGAUGCAGAGGAGGCAGGCUUCGGUGGCGCGAUAGCGCCAACGUCCUCAACCGCCAAUGCAUCCCACCACAUGAUGAUGCCUGAAGAGCAUUGGUUUUUUG [U87G C124A]	0.735
GACCAAUCUGCCCUCAGAGCUCGAGAACAUCUUCGGAUGCAGAGGAGGCAGGCUUCGGUGGCGCGAUAGCGCCAACGUUCUCAACCUCCAAUGCAUCCCACCACAUGAUGAUGCCUGAAGAUCCUUGGUUUUUUG [C79U G122U]	0.0245
GACCAAUCUGCCCUCAGAGCUCGAGAACAUCUUCGGAUGCAGAGGAGGGAGGCUUCGGUGGCGCGAUAGCGCCAACGUCCUCAACCUCCAAUGGAUCCCACCACAUGAUGAUGCCUGAAGAGCCUUGGUUUUUUG [C49G C94G]	-1.92
GACCAAUCUGCCCUCAGAGCUCGAGAACAUCUUCGGAUGCAGAGGAGGCAGGCUCCGGUGGCGCGAUAGCGCCAACGUCCUCAACCUCCAAUGCAUCCCACCACAGGAUGAUGCCUGAAGAGCCUUGGUUUUUUG [U55C U106G]	-1.88
GACCAAUCUGCCGUCAGAGCUCGAGAACAUCUUCGGAUGGAGAGGAGGCAGGCUUCGGUGGCGCGAUAGCGCCAACGUCCUCAACCUCCAAUGCAUCCCACCACAUGAUGAUGCCUGAAGAGGCUUGGUUUUUUG [C13G C40G C123G]	-0.377
GACCCAUCUGCCCUCAGAGCUUGAGAACAUCUUCGGAUGCAGAGGAGGCAGGCUUCGGUGGCGCGAUAGCGCCAACGUCCUCAACCUCAAAUGCAUCCCACCACAUGAUGAUGCCUGAAGGGCCUUGGUUUUUUG [A5C C22U C89A A121G]	-4.41
GACCAAUCUGCCCUCAGAGCUCGAGAACAUCUUCGGAUGCCGAGGAGGCAGGCUUCGGUGGCGCGAUAUCGCCAACGUCCUCAACCUCCAACGCAUCCCACCACAUGAUGAUGCCUGAAGAGCCUUGGUUUUUUG [A41C G69U U92C]	-0.226
GACCAAUCUGCCCUCAGAGCUCGAGAACAUCUUCGGAUGCAGAGGAGGCAGGCUUCGGUGACGUGAUAGCGUCAACGUCCUCAACCUCCAUUGCAUCCCACCACAUGAUGAUGCCUGAAGAGCCUUGGUUUUUUG [G61A C64U C72U A91U]	-1.32
GACCAAUCUGCCCUCAGAGCUCGAGAACAUCUUCGGAUGCAGAGGAUGCAGGCUUCGGUGGCGCGAUAGCGCCAACGUCGUCAACCACCAAUGCAUCCCAUCACAUGAUGAUGCCUGAAGAGACUUAGUUUUUUG [G47U C80G U87A C101U C123A G127A]	-5.76
GACCAAUCUGUCCUCAGAGCUCGAGAACAGCUUCGGAUGCAGAGGAGGCAGGCUUCGGUGGCGCGAUAGCGCCAACGUCCUCAACCUCCAAUGCAUCCCACCACAUGAUGAUGCCUGAACAGCCUUGGUUUUUUG [C11U U30G G120C]	-5.71
GACCAAUCUGCCCUCCGAGCUCGAGAACAUCUUCGGAUGCAGAGGAGGCAGGCUUAGGUGGCGCGAUAGCGCCAACGUCCUCAACCUCCAAUGCAUCCCACCACAUGAUGAUGCCUGAAGAGCCUUGGUUUUUUG [A16C C56A]	-2.44
GACCAAUCUGCCCUCAGAGCUCGAGAACAUCUUCAGAUGCAGAGGAGGCAGGUUUCUGUGGCGCGAUAACGCCAACGUCCUCUACCUCCAAUGCAUCCCACCACAUGAUGAUGCUUGAAGAGCCUUGGUUUUUUG [G35A C53U G57U G69A A83U C115U]	-6.36
GACCAAUCUGCCCUCAGAGCUCGAGAACAUCUUCGGAUGCAGAGGAGGGAAGCGUCGGUGGCGCGAUAGCGCCAACGUCCUCAACCUCCAAUGCAUCCCACCACAUGAUGAUGCCUGAAGAGCCUUGGUUUUUUG [C49G G51A U54G]	-4.1
GACCAAUCUGCCCUCAGAGCUCGAGAACAUCUUCGGAUGCAGAGGAGGCAGGCUUCGGUGGCGCGAUAGCGCCAACGUCCUCAACCUCCAAAGCAUCCCACCACAUGAUGAUGCCUGAAGAGCUUUGGUUUUUUG [U92A C124U]	-1.43
GACCAAUGUGCCCUCAGAGCUCGAGAACAUCUUCGGAUGCAGAGGAGGCCGGCUUCGGUGGCGCGAUAGCGCCAACGUUCUCAACCUCCUAUGCAUCCCACCACAUGAUGAUGCCUGAAGAGCCUUGGUUUUUUG [C8G A50C C79U A90U]	-1.96
GACCAAUCUGCCCUCAGAGCUCGAGAACAUCUUCGGAUGCAGAGGAGGGAGGCUUCGGUGGCGCGAUAUCGCCAACGUCCUCAACCUCCAAUGCAUCCCACCACAUGAUGAUGCUUGAAGAGCCUUGGUUUUUUG [C49G G69U C115U]	0.956
GACCAAUCUGCCCUCAGAGAUCGAGAACAUCAUCGGAUGCAGAGGAGGCAGGCUUCGGUGGCGCGAUAGCGCCAACGUCCUCAACCUCCAAUCCAUCCCACCACAUGAUGAUGCCUGAAGAGCCUUGGUUUUUUG [C20A U32A G93C]	-4.21
GACCAAUCUGCCCUCAGAGCUCGAGAACAUCUUCGGAUGCAGAGGAGGCAGGCUUCGGUGGCGCGAUAGCGGCAACGUCCUCAACCUCCAAUGCAUCCCAACACAUGAUGAUGCCUGAAGAGCCUUGGUUUUUUG [C72G C101A]	-0.799
